In experiment [1] the target is rat parathyroid hormone receptor (PTHR) (UniProt P25961). Nature of the experiment: competition binding; RG conformation.
The target is the same in experiment [2]. As to the kind of experiment: competition binding; R0 conformation.

Sequence of rat parathyroid hormone receptor (PTHR) (P25961 27-591): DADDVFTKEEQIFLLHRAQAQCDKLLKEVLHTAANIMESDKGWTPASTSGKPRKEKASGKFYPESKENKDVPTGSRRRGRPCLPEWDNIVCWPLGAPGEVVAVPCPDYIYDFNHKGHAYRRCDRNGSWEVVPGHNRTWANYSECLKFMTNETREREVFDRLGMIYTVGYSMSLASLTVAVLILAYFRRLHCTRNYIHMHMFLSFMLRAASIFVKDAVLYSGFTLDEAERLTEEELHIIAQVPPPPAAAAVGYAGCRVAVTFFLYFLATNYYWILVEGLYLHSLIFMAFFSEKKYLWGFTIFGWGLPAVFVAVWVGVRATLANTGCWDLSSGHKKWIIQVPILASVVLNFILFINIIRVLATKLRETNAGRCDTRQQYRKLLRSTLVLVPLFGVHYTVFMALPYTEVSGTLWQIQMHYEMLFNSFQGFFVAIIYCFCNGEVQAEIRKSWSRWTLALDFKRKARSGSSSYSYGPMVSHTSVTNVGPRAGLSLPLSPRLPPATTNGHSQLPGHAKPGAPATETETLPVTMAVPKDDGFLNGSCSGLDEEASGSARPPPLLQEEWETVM

With H5,E19,Mc-hPTH(1-14)/rP(15-36)OH, the IC50 is 4.8 nM in experiment [1] and 197 nM in experiment [2].
For H5,E19,Mc-hPTH(1-34)OH, in that order: 1.41 nM and 1390 nM.
For H5,Mc-hPTH(1-14)/rP(15-36)OH, in that order: 1.7 nM and 9 nM.
For H5,Mc-hPTH(1-34)OH, in that order: 0.32 nM and 26 nM.
On to Mc-PTH(1-11)/PTHrP(12-36)OH, for which the concentration for half-maximal inhibition (IC50) was 0.73 nM in experiment [1] and 1.8 nM in experiment [2].
For the substance Mc-PTH(1-14)/PTHrP(15-36)OH, the figures for the IC50 in experiment [1] and in experiment [2] were 0.81 nM and 1.3 nM, respectively.
For Mc-PTH(1-18)/PTHrP(19-36)OH, in that order: 0.82 nM and 1.4 nM.
For Mc-hPTH(1-34)OH, in that order: 0.56 nM and 1.9 nM.
For [A^23,E^19],Mc-hPTH(1-34)OH, in that order: 0.49 nM and 20.3 nM.
Consider [E^19],Mc-hPTH(1-34)OH, for which the IC50 in experiment [1] was determined as 0.57 nM; in experiment [2], 2.33 nM.
For [I^5]-PTHrP(1-36), in that order: 1.02 nM and 2.3 nM.
Turning to hPTHrP(1-36), the IC50 worked out at 0.44 nM in experiment [1] and 20 nM in experiment [2].

A word on the IC50: it is the midpoint of a concentration-inhibition curve. The low end stands for greater potency, the high end for weaker potency.

Values taken from US20110172153A1.
